Measurements reported in IntAct's records for PubMed 29892012.

B1: Centrosomal protein POC5 (Homo sapiens), Q8NA72 (parent)
chain: MSSDEEKYSLPVVQNDSSRGSSVSSNLQEEYEELLHYAIVTPNIEPCASQSSHPKGELVPDVRISTIHDILHSQGNNSEVRETAIEVGKGCDFHISSHSKTDESSPVLSPRKPSHPVMDFFSSHLLADSSSPATNSSHTDAHEILVSDFLVSDENLQKMENVLDLWSSGLKTNIISELSKWRLNFIDWHRMEMRKEKEKHAAHLKQLCNQINELKELQKTFEISIGRKDEVISSLSHAIGKQKEKIELMRTFFHWRIGHVRARQDVYEGKLADQYYQRTLLKKVWKVWRSVVQKQWKDVVERACQARAEEVCIQISNDYEAKVAMLSGALENAKAEIQRMQHEKEHFEDSMKKAFMRGVCALNLEAMTIFQNRNDAGIDSTNNKKEEYGPGVQGKEHSAHLDPSAPPMPLPVTSPLLPSPPAAVGGASATAVPSAASMTSTRAASASSVHVPVSALGAGSAATAASEEMYVPRVVTSAQQKAGRTITARITGRCDFASKNRISSSLAIMGVSPPMSSVVVEKHHPVTVQTIPQATAAKYPRTIHPESSTSASRSLGTRSAHTQSLTSVHSIKVVD
partner: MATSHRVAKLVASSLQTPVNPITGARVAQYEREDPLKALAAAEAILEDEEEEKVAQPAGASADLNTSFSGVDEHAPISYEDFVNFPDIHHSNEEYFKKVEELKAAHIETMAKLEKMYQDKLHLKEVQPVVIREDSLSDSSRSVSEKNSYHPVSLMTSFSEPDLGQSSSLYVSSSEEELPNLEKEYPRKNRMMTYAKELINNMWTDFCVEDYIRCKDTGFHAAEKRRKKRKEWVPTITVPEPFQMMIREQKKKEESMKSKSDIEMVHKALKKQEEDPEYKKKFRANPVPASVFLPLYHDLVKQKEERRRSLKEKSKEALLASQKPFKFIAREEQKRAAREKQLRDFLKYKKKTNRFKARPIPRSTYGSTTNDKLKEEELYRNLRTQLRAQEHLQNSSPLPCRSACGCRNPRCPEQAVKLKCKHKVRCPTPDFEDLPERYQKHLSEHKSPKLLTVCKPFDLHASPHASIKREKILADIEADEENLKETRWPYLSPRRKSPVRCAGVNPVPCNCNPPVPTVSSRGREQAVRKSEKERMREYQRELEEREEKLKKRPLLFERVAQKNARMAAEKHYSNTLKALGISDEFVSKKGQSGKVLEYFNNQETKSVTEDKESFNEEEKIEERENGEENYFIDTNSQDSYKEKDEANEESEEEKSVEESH
B2: Small glutamine-rich tetratricopeptide repeat-containing protein beta (Homo sapiens), Q96EQ0 (parent)
chain: MSSIKHLVYAVIRFLREQSQMDTYTSDEQESLEVAIQCLETVFKISPEDTHLAVSQPLTEMFTSSFCKNDVLPLSNSVPEDVGKADQLKDEGNNHMKEENYAAAVDCYTQAIELDPNNAVYYCNRAAAQSKLGHYTDAIKDCEKAIAIDSKYSKAYGRMGLALTALNKFEEAVTSYQKALDLDPENDSYKSNLKIAEQKLREVSSPTGTGLSFDMASLINNPAFISMAASLMQNPQVQQLMSGMMTNAIGGPAAGVGGLTDLSSLIQAGQQFAQQIQQQNPELIEQLRNHIRSRSFSSSAEEHS
B3: Chorion-specific transcription factor GCMb (Homo sapiens), O75603 (parent)
chain: MPAAAVQEAVGVCSYGMQLSWDINDPQMPQELALFDQFREWPDGYVRFIYSSDEKKAQRHLSGWAMRNTNNHNGHILKKSCLGVVVCTQACTLPDGSRLQLRPAICDKARLKQQKKACPNCHSALELIPCRGHSGYPVTNFWRLDGNAIFFQAKGVHDHPRPESKSETEARRSAIKRQMASFYQPQKKRIRESEAEENQDSSGHFSNIPPLENPEDFDIVTETSFPIPGQPCPSFPKSDVYKATCDLATFQGDKMPPFQKYSSPRIYLPRPPCSYELANPGYTNSSPYPTLYKDSTSIPNDTDWVHLNTLQCNVNSYSSYERSFDFTNKQHGWKPALGKPSLVERTNHGQFQAMATRPYYNPELPCRYLTTPPPGAPALQTVITTTTKVSYQAYQPPAMKYSDSVREVKSLSSCNYAPEDTGMSVYPEPWGPPVTVTRAASPSGPPPMKIAGDCRAIRPTVAIPHEPVSSRTDEAETWDVCLSGLGSAVSYSDRVGPFFTYNNEDF
partner: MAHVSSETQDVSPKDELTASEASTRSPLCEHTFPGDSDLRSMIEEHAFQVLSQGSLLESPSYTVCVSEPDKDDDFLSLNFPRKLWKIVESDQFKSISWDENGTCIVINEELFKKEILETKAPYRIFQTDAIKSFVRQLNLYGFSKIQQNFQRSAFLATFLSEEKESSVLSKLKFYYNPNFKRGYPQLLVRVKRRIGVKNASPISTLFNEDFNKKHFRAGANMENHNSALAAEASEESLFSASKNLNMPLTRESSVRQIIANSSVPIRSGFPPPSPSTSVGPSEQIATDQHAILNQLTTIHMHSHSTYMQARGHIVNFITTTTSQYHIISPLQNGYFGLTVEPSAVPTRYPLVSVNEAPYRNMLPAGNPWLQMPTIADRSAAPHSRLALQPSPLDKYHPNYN
B4: Vasculin (Homo sapiens), Q86WP2 (parent)
chain: MAQHDFAPAWLNFPTPPSSTKSSLNFEKHSENFAWTENRYDVNRRRHNSSDGFDSAIGRPNGGNFGRKEKNGWRTHGRNGTENINHRGGYHGGSSRSRSSIFHAGKSQGLHENNIPDNETGRKEDKRERKQFEAEDFPSLNPEYEREPNHNKSLAAGVWEYPPNPKSRAPRMLVIKKGNTKDLQLSGFPVVGNLPSQPVKNGTGPSVYKGLVPKPAAPPTKPTQWKSQTKENKVGTSFPHESTFGVGNFNAFKSTAKNFSPSTNSVKECNRSNSSSPVDKLNQQPRLTKLTRMRTDKKSEFLKALKRDRVEEEHEDESRAGSEKDDDSFNLHNSNSTHQERDINRNFDENEIPQENGNASVISQQIIRSSTFPQTDVLSSSLEAEHRLLKEMGWQEDSENDETCAPLTEDEMREFQVISEQLQKNGLRKNGILKNGLICDFKFGPWKNSTFKPTTENDDTETSSSDTSDDDDV
partner: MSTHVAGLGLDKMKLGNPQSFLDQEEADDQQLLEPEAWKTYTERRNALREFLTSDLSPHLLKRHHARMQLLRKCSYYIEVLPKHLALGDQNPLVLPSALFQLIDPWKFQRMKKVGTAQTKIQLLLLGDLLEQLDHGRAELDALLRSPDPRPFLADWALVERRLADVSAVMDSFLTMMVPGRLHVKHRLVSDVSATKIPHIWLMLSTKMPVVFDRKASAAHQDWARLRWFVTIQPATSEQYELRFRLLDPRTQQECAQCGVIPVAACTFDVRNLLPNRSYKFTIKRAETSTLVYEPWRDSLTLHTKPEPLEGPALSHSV

Variants of: B1
Settings: with FAM161A

Row | effect of a mutation on the interaction | Variant
1 | with no effect | MSSDEEKYSLPVVQNDSSRGSSVSSNLQEEYEELLHYAIVTPNIEPCASQSSHPKGELVPDVRISTIHDILHSQGNNSEVRETAIEVGKGCDFHISSHSKTDESSPVLSPRKPSHPVMDFFSSHLLADSSSPATNSSHTDAHEILVSDFLVSDENLQKMENVLDLWSSGLKTNIISELSKWRLNFIDWHRMEMRKEKEKHAAHLKQLCNQINELKELQKTFEISIGRKDEVISSLSHAIGKQKEKIELMRTFFHWRIGHVRARQDVYEGKLADQYYQRTLLKKVWKVWRSVVQKQWKDVVERACQARAEEVCIQISNDYEAKVAMLSGALENAKAEIQRMQHEKEHFEDSMKKAFMRGVCALNLEAMTIFQNRNDAGIDSTNNKKEEYGPGVQGKEHSAHLDPSAPPMPLPVTSPLLPSPPAAVGGASATAVPSAASMTSTRAASASSVHVPVSALGAGSAATAASEETYVPRVVTSAQQKAGRTITARITGRCDFASKNRISSSLAIMGVSPPMSSVVVEKHHPVTVQTIPQATAAKYPRTIHPESSTSASRSLGTRSAHTQSLTSVHSIKVVD [M469T]

Variants of: B2
Settings: with fbln4_human EFEMP2, O95967
Chain of fbln4_human EFEMP2, O95967 (O95967 whole entry): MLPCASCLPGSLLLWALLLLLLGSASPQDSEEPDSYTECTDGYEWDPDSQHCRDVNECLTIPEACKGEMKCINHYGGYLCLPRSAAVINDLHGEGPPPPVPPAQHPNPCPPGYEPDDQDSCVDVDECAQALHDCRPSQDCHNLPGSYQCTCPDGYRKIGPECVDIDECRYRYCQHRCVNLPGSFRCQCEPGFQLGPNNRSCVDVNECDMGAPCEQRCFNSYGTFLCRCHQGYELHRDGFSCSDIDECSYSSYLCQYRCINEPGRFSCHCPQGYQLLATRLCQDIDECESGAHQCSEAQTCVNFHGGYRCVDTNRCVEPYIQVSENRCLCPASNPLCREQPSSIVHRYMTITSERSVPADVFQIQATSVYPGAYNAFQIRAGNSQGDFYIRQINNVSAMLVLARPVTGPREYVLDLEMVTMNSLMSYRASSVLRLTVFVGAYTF

Row | effect of a mutation on the interaction | Variant
2 | with no effect | MSSIKHLVYAVIRFLREQSQMDTYTSDEQESLEVAIQCLETVFKISPEDTHLAVSQPLTEMFTSSFCKNDVLPLSNSVPEDVGKADQLKDEGNNHMKEENYAAAVDCYTQAIELDPNNAVYYCNRAAAQSKLGHYTDAIKDCEKAIAIDSKYSKAYGRMGLALTALNKFEEAVTSYQKALDLDPENDSYKSNLKIAEQKLREVSSPTGTGLSFDMASLINNPAFISMAASLMQNPQVQQLMSGMMTNAIGGPAAGVGGLTDLSSLIQAGQQFAQQIQQQNPELIEQLRNHIWSRSFSSSAEEHS [R292W]

Variants of: B2
Settings: with il6rb_human IL6ST

Row | effect of a mutation on the interaction | Variant
3 | disrupting interaction strength | MSSIKHLVYAVIRFLREQSQMDTYTSDEQESLEVAIQCLETVFKISPEDTHLAVSQPLTEMFTSSFCKNDVLPLSNSVPEDVGKADQLKDEGNNHMKEENYAAAVDCYTQAIELDPNNAVYYCNRAAAQSKLGHYTDAIKDCEKAIAIDSKYSKAYGRMGLALTALNKFEEAVTSYQKALDLDPENDSYKSNLKIAEQKLREVSSPTGTGLSFDMASLINNPAFISMAASLMQNPQVQQLMSGMMTNAIGGPAAGVGGLTDLSSLIQAGQQFAQQIQQQNPELIEQLRNHIWSRSFSSSAEEHS [R292W]

Variants of: B3
Settings: with hsfy1_human HSFY1, Q96LI6

Row | effect of a mutation on the interaction | Variant
4 | with no effect | MPAAAVQEAVGVCSYGMQLSWDINDPQMPQELALFDQFREWPDGYVRFIYSSDEKKAQRHLSGWAMRNTNNHNGHILKKSCLGVVVCTQACTLPDGSRLQLRPAICDKARLKQQKKACPNCHSALELIPCRGHSGYPVTNFWRLDGNAIFFQAKGVHDHPRPESKSETEARRSAIKRQMASFYQPQKKRIRESEAEENQDSSGHFSNIPPLENPEDFDIVTETSFPIPGQPCPSFPKSDVYKATCDLATFQGDKMPPFQKYSSPRIYLPRPPCSYELANPGYTNSSPYPTLYKDSTSIPNDTDWVHLNTLQCNVNSYSSYERSFDFTNKQHGWKPALGKPSLVERTNHEQFQAMATRPYYNPELPCRYLTTPPPGAPALQTVITTTTKVSYQAYQPPAMKYSDSVREVKSLSSCNYAPEDTGMSVYPEPWGPPVTVTRAASPSGPPPMKIAGDCRAIRPTVAIPHEPVSSRTDEAETWDVCLSGLGSAVSYSDRVGPFFTYNNEDF [G349E]

Variants of: B4
Settings: with fnd11_human FNDC11, Q9BVV2

Row | effect of a mutation on the interaction | Variant
5 | with no effect | MAQHDFAPAWLNFPTPPSSTKSSLNFEKHSENFAWTENRYDVNRRRHNSSDGFDSAIGRPNGGNFGRKEKNGWRTHGRNGTENINHRGGYHGGSSRSRSSIFHAGKSQGLHENNIPDNETGRKEDKRERKQFEAEDFPSLNPEYEREPNHNKSLAAGVWEYPPNPKSRAPRMLVIKKGNTKDLQLSGFPVVGNLPSQPVKNGTGPSVYKGLVPKPAAPPTKPTQWKSQTKENKVGTSFPHESTFGVGNFNAFKSTAKNFSPSTNSVKECNRSNSSSPVDKLNQQPRLTKLTQMRTDKKSEFLKALKRDRVEEEHEDESRAGSEKDDDSFNLHNSNSTHQERDINRNFDENEIPQENGNASVISQQIIRSSTFPQTDVLSSSLEAEHRLLKEMGWQEDSENDETCAPLTEDEMREFQVISEQLQKNGLRKNGILKNGLICDFKFGPWKNSTFKPTTENDDTETSSSDTSDDDDV [R292Q]
